Measurements as given in US20250381244A1.

Target: Neuropilin-2 (human NRP-2), endogenous on U87MG, Jurkat and HUVEC cells (human) (UniProt O60462)
Assay: cell-based or functional assay

Sequence of Neuropilin-2 (human NRP-2), endogenous on U87MG, Jurkat and HUVEC cells (human) (O60462 21-931 limits assumed): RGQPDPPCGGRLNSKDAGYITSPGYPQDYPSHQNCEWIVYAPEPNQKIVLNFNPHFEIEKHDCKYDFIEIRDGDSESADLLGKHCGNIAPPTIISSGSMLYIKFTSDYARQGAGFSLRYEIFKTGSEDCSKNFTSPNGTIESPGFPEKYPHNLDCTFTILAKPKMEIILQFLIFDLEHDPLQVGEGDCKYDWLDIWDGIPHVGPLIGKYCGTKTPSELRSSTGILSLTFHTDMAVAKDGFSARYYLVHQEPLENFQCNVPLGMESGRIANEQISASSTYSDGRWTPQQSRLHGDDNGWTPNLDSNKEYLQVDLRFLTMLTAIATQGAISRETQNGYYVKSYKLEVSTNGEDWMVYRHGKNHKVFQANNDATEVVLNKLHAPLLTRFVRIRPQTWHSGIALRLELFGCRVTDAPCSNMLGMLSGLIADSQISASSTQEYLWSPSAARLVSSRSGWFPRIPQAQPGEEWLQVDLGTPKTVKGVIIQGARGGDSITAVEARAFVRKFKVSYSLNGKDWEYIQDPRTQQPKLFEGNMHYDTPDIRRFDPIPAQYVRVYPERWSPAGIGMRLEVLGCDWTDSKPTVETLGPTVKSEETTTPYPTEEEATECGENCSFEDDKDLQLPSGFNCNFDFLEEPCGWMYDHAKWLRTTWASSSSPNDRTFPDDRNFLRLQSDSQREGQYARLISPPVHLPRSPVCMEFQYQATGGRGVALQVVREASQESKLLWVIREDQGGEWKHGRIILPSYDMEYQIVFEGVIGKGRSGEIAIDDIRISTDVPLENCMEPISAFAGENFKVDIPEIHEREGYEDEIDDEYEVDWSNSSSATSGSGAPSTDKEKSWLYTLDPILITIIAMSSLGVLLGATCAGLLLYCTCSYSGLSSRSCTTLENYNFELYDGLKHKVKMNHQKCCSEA

inhibition of DFO-induced VEGF promoter luciferase activity, U87MG cells: 43%
inhibition of stress fiber formation (phalloidin staining), pcDNA3.1 control vector transfected U87MG cells: 90%
reduction of hypoxia (1% O2)-induced VEGF promoter luciferase activity, U87MG cells: 44%
suppression of RhoA activity (rhotekin pulldown), control pcDNA3.1-transfected U87MG cells: 88%
Substance: Human recombinant SEMA3F (full-length, His-Myc-tagged human SEMA3F, secreted by 293T cells and purified) (from UniProt Q13275 20-785) (ligand)
